This data set deals with Saccharomyces cerevisiae. Briefly: protein stability index of tFT-peptide fusion (C-terminal peptide) (PSI (0-1 scale)); higher = more stable (slower turnover). The settings on record: temperature: 30 C. As for the experimental part:
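MPS profiling in S. cerevisiae of the yeast C-terminome library: the last 12 aa of each annotated ORF are fused to the C-terminus of a sfGFP-mCherry timer, after a GGGS linker. Cells are FACS-sorted into 8 mCherry/sfGFP bins and deep-sequenced. PSI runs from 0 (unstable) to 1 (stable); wild type and das1Δ backgrounds, two technical replicates each.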

The mark [1] stands for this setting: genetic background: das1 deletion.

± gives the standard deviation of the averaged measurements.

For the sequence SSVKKKLYPKSK [RIM11 C-terminal 12 aa], the protein stability index came out at 0.704 ± 0.015 under setting [1] and 0.693 ± 0.073 (genetic background: wild type).
Taken in the same sequence, the figures for STDETPDNENKQ [SGT2 C-terminal 12 aa] were 0.6998 ± 0.0031 and 0.67 ± 0.0077.
For STDQLPELSFEV [TVP38 C-terminal 12 aa], the protein stability index is 0.699 ± 0.013 under setting [1] and 0.722 ± 0.0051 (genetic background: wild type).
Regarding STFTLNLEDVSK [ECM12 C-terminal 12 aa], the protein stability index was 0.711 ± 0.0086 under setting [1] and 0.634 ± 0.016 (genetic background: wild type).
The matching figures for STSCDVIQSRNA [MET22 C-terminal 12 aa]: 0.71 ± 0.03 and 0.692 ± 0.0075.
Consider SVLSGSAEFVFY [NCA3 C-terminal 12 aa], for which the protein stability index was 0.7188 ± 0.0024 under setting [1] and 0.7148 ± 0.0061 (genetic background: wild type).
Taken in the same sequence, the figures for SVLVCFLLRRAS [YJR087W C-terminal 12 aa] were 0.506 ± 0.02 and 0.342 ± 0.0095.
Taken in the same sequence, the figures for SVLYAIDFSAAF [EMA35 C-terminal 12 aa] were 0.717 ± 0.012 and 0.703 ± 0.02.
Taken in the same sequence, the figures for SVPKPSQARFSV [UTR1 C-terminal 12 aa] were 0.684 ± 0.025 and 0.703 ± 0.025.
In the case of SYKDTKRWMFKK [PSF3 C-terminal 12 aa], the protein stability index reads like this: under setting [1], 0.724 ± 0.057; (genetic background: wild type) 0.715 ± 0.078.
SYLKGYIGCKIS [YPR092W C-terminal 12 aa]: the protein stability index runs as follows: under setting [1], 0.745 ± 0.042; (genetic background: wild type) 0.569 ± 0.033.
The matching figures for “TAFGISSCRDLA [YLR163W-A C-terminal 12 aa]”: 0.707 ± 0.016 and 0.6829 ± 0.00097.
With TARPFPAPNIAA [YLR349W C-terminal 12 aa], the protein stability index came to 0.728 ± 0.029 under setting [1] and 0.67 ± 0.016 (genetic background: wild type).
The matching figures for TASQLLEVQSKS [YGL039W C-terminal 12 aa]: 0.68 ± 0.023 and 0.6694 ± 0.006.
The matching figures for TDCGLETEEIDI [RAD14 C-terminal 12 aa]: 0.663 ± 0.025 and 0.6823 ± 0.0022.
The matching figures for TDDNNIQTILLK [YIG1 C-terminal 12 aa]: 0.679 ± 0.012 and 0.704 ± 0.044.
For the sequence TEFEKIHRNTFN [REX4 C-terminal 12 aa], the protein stability index reads like this: under setting [1], 0.706 ± 0.012; (genetic background: wild type) 0.723 ± 0.033.
The matching figures for TEIDESFEMTDF [KEX1 C-terminal 12 aa]: 0.723 ± 0.021 and 0.7471 ± 0.0064.
The matching figures for TGFFGKLKKLFK [CRP1 C-terminal 12 aa]: 0.762 ± 0.0086 and 0.724 ± 0.0086.
Taken in the same sequence, the figures for TGFKDKFLDALL [PUT4 C-terminal 12 aa] were 0.689 ± 0.014 and 0.69 ± 0.011.
Regarding TGLAGEGDTLVT [TAG1 C-terminal 12 aa], the protein stability index runs as follows: under setting [1], 0.694 ± 0.007; (genetic background: wild type) 0.685 ± 0.021.
Taken in the same sequence, the figures for THLQQVAVSGQA [SEC23 C-terminal 12 aa] were 0.572 ± 0.0092 and 0.618 ± 0.014.
As to THMKPWYRRWFW [INA17 C-terminal 12 aa], the protein stability index is, setting by setting: under setting [1], 0.742 ± 0.012; (genetic background: wild type) 0.718 ± 0.018.
The matching figures for TIGWLQESLAGI [HOT1 C-terminal 12 aa]: 0.706 ± 0.0076 and 0.684 ± 0.029.
The matching figures for TIISKGYAKIRD [TAF4 C-terminal 12 aa]: 0.68 ± 0.022 and 0.7 ± 0.049.
In the case of TIKKGTTLEPIA [GCD11 C-terminal 12 aa], the protein stability index reads like this: under setting [1], 0.6896 ± 0.0033; (genetic background: wild type) 0.7 ± 0.028.
The matching figures for TILHQQVNSKLH [YHR180W C-terminal 12 aa]: 0.7181 ± 0.00078 and 0.627 ± 0.02.
For TILLFYPPLLKR [YDR544C C-terminal 12 aa], the protein stability index turned out to be 0.627 ± 0.0074 under setting [1] and 0.6119 ± 0.0047 (genetic background: wild type).
Taken in the same sequence, the figures for TIPAAKRTKPSA [LYS20 C-terminal 12 aa] were 0.69801 ± 0.00025 and 0.703 ± 0.014.
For the sequence TKCSLKNSISLT [VAB2 C-terminal 12 aa], the protein stability index runs as follows: under setting [1], 0.677 ± 0.012; (genetic background: wild type) 0.733 ± 0.086.
Taken in the same sequence, the figures for TKEAKRRAMKKK [UME6 C-terminal 12 aa] were 0.706 ± 0.028 and 0.677 ± 0.013.
With TKKANILDPDYL [FLC1 C-terminal 12 aa], the protein stability index by setting is: under setting [1], 0.685 ± 0.023; (genetic background: wild type) 0.728 ± 0.032.
The matching figures for TKLGEQRHLCTD [ESL2 C-terminal 12 aa]: 0.698 ± 0.019 and 0.7 ± 0.013.
Taken in the same sequence, the figures for TKPNNGLNITNY [MTL1 C-terminal 12 aa] were 0.689 ± 0.019 and 0.716 ± 0.046.
The matching figures for TKSIFPSVNPSA [GPB2 C-terminal 12 aa]: 0.694 ± 0.02 and 0.669 ± 0.019.
For the sequence “TLDRASNCWRGT [YBL006W-A C-terminal 12 aa]”, the protein stability index reads like this: under setting [1], 0.709 ± 0.016; (genetic background: wild type) 0.714 ± 0.062.
Taken in the same sequence, the figures for TLHDDRESKSED [CMK2 C-terminal 12 aa] were 0.6829 ± 0.0059 and 0.694 ± 0.036.
Taken in the same sequence, the figures for TLIAAGIIRTGR [STI1 C-terminal 12 aa] were 0.727 ± 0.025 and 0.702 ± 0.016.
Taken in the same sequence, the figures for TLKSTSSTNSPD [SMP1 C-terminal 12 aa] were 0.703 ± 0.011 and 0.6844 ± 0.006.
Turning to TLVFDVELLKVN [FPR1 C-terminal 12 aa], the protein stability index reads like this: under setting [1], 0.6084 ± 0.0029; (genetic background: wild type) 0.251 ± 0.033.
The matching figures for TMNCNNADDMLF [YGR190C C-terminal 12 aa]: 0.6995 ± 0.004 and 0.677 ± 0.022.
As for TNVGLKLIAIAK [PPM2 C-terminal 12 aa], the protein stability index reads like this: under setting [1], 0.655 ± 0.034; (genetic background: wild type) 0.649 ± 0.017.
Taken in the same sequence, the figures for TNVQANSYRKVP [SDP1 C-terminal 12 aa] were 0.6856 ± 0.0029 and 0.522 ± 0.054.
TPGGGGFGQYKD [OXP1 C-terminal 12 aa] yielded a protein stability index under setting [1] of 0.7088 ± 0.00061 and a protein stability index (genetic background: wild type) of 0.677 ± 0.03.
The matching figures for TPLGPKPDIRPL [ECM4 C-terminal 12 aa]: 0.727 ± 0.03 and 0.67 ± 0.016.
Taken in the same sequence, the figures for TPSKEINFDDDF [RNR4 C-terminal 12 aa] were 0.72 ± 0.011 and 0.723 ± 0.041.
The matching figures for TQLRYTSRGLYR [ECM30 C-terminal 12 aa]: 0.699 ± 0.018 and 0.689 ± 0.023.
For the sequence TQSGDDYTIRLT [APM1 C-terminal 12 aa], the protein stability index was 0.703 ± 0.015 under setting [1] and 0.698 ± 0.014 (genetic background: wild type).
The matching figures for TRPPCSPIAGYA [YOR345C C-terminal 12 aa]: 0.608 ± 0.017 and 0.628 ± 0.012.
The matching figures for “TSCNLNSSVVRS [YOR186C-A C-terminal 12 aa]”: 0.708 ± 0.035 and 0.695 ± 0.0014.
TSPKESFFKEVI [LPX2 C-terminal 12 aa] gave a protein stability index under setting [1] of 0.715 ± 0.03 and a protein stability index (genetic background: wild type) of 0.711 ± 0.022.
Taken in the same sequence, the figures for TTPTLPTFRTVA [FKS3 C-terminal 12 aa] were 0.686 ± 0.018 and 0.6971 ± 0.0014.
The matching figures for TTTGDKKSEEKQ [TCB2 C-terminal 12 aa]: 0.685 ± 0.027 and 0.69 ± 0.032.
The matching figures for TYFSFHILFHNL [YOR309C C-terminal 12 aa]: 0.614 ± 0.0097 and 0.221 ± 0.013.
With TYQLIEKNRNSK [BLS1 C-terminal 12 aa], the protein stability index worked out at 0.692 ± 0.019 under setting [1] and 0.678 ± 0.01 (genetic background: wild type).
The matching figures for VAAGVFIEHDEL [YOS9 C-terminal 12 aa]: 0.723 ± 0.0098 and 0.702 ± 0.013.
Taken in the same sequence, the figures for VASSTEQLLQEM [DYN1 C-terminal 12 aa] were 0.67372 ± 0.00052 and 0.693 ± 0.029.
As to VATADIKNEDKN [BNA2 C-terminal 12 aa], the protein stability index runs as follows: under setting [1], 0.671 ± 0.021; (genetic background: wild type) 0.731 ± 0.066.
Taken in the same sequence, the figures for VDAKIKKQMNRH [YJR124C C-terminal 12 aa] were 0.694 ± 0.011 and 0.682 ± 0.0093.
The matching figures for VDYKTEPLQPLI [RGI2 C-terminal 12 aa]: 0.7 ± 0.022 and 0.678 ± 0.0079.
The sequence VEGKNAAASGSA [LEU4 C-terminal 12 aa] yielded a protein stability index under setting [1] of 0.7086 ± 0.0054 and a protein stability index (genetic background: wild type) of 0.682 ± 0.013.
In turn, VEKDLVSVGSTW [NAR1 C-terminal 12 aa] had a protein stability index under setting [1] of 0.676 ± 0.0024 and a protein stability index (genetic background: wild type) of 0.7073 ± 0.0067.
The matching figures for VEKVKKFVEENN [YML108W C-terminal 12 aa]: 0.678 ± 0.007 and 0.651 ± 0.069.
The matching figures for VELYENQSHMQN [CDC9 C-terminal 12 aa]: 0.701 ± 0.01 and 0.678 ± 0.074.
For the sequence VEVLENLQSVLK [ATP16 C-terminal 12 aa], the protein stability index is, setting by setting: under setting [1], 0.68 ± 0.013; (genetic background: wild type) 0.7134 ± 0.0029.
The matching figures for VGGIDYIKEFLS [CDA2 C-terminal 12 aa]: 0.7012 ± 0.0019 and 0.264 ± 0.0041.
Taken in the same sequence, the figures for VGLLTAIIMSIM [PST1 C-terminal 12 aa] were 0.576 ± 0.011 and 0.529 ± 0.021.

The record behind these values is the supplement of paper PMC10724198.
